Values belong to the binder of their own block, whether it stands above or below them.
Experiments:
PD-L1-Fc receptor [1] = biological target: T1, PD-L1-Fc receptor (human, UniProt Q9NZQ7 19-238, limits assumed); experiment: BLI (OctetRed 96), PD-L1-Fc in solution; Response 0 and KD 0
T1 construct: also called human PD-L1 receptor; not shown: Fc
Procedure: (§1) The affinity constants for binding of IL15SA bispecific immunocytokines (hereinafter referred to as anti-PD1-Fab-CK_IL15Ra_Hc_IL15CH1FcknobLALA anti-PD-L1-Fab-CK_IL15Ra_Hc_IL15CH1FcknobLALA) to IL2βγ and human PD-1/PD-L1 receptors were measured using OctetRed 96 according to the ForteBio instructions. AR2G biosensors were pre-rehydrated for an hour in mQ. After the activation of biosensors, the bispecific immunocytokines at a concentration of 25 μg/ml in acetate buffer pH4 were non-specifically (by NH₂ groups) immobilized onto the biosensor. The sensors were then immersed into wells containing Human CD122/IL-2RB Protein (Fc Tag) or PD-1-Fc receptor or PD-L1-Fc receptor (1 and 0.5 μg/ml) in PBS buffer supplemented with 0.1% Tween-20 and 0.1% BSA to associate the bispecific super-agonist and the test receptor. The sensors were then immersed in a buffer solution for a subsequent dissociation step.
(§2) The instrumental data, after subtracting a reference signal, were analyzed using Octet Data Analysis software (Version 8.0) in accordance with the standard procedure and using 1:1 interaction model.

[2] = biological target: T2, Human CD122/IL-2RB Protein (Fc Tag) (human, UniProt P14784 27-240); experiment: BLI (OctetRed 96), CD122/IL-2RB-Fc in solution; Response 0 and KD 0
T2 construct: No gamma chain is mentioned; also called human IL2βγ; human IL2βγ-Fc; not shown: Fc tag
T2 sequence (looked up): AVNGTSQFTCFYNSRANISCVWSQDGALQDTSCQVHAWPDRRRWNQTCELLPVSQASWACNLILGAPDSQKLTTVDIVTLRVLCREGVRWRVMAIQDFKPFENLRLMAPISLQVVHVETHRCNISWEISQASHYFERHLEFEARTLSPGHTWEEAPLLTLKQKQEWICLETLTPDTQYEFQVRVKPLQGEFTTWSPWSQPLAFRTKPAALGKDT
Procedure: as §1, §2

[3] = biological target: PD-1 on Jurkat NFAT-FLuc PD-1 cells (UniProt Q15116 25-288, limits assumed); experiment: cell-based or functional assay
PD-1 on Jurkat NFAT-FLuc PD-1 cells, sequence (Q15116 25-288 limits assumed): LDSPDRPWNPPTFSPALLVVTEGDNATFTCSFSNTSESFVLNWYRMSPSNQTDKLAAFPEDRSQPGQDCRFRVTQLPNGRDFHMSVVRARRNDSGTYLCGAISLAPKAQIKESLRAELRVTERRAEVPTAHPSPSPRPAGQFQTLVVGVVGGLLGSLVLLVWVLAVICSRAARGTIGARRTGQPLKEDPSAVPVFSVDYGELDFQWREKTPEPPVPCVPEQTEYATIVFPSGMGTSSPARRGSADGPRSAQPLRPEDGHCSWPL

PD-1-Fc receptor = biological target: T3, PD-1-Fc receptor (human, UniProt Q15116 25-167, limits assumed); experiment: BLI (OctetRed 96), PD-1-Fc in solution, 1:1 model
T3 construct: also called human PD-1 receptor; not shown: Fc
T3 sequence (Q15116 25-167 limits assumed): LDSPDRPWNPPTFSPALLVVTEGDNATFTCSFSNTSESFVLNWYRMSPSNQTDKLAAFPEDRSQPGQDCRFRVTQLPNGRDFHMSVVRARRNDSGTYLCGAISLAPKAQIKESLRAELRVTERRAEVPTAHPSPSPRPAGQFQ
Procedure: as §1, §2

PD-L1-Fc receptor [4] = biological target: T1, PD-L1-Fc receptor; experiment: BLI (OctetRed 96), PD-L1-Fc in solution, 1:1 model

T1 sequence (Q9NZQ7 19-238 limits assumed): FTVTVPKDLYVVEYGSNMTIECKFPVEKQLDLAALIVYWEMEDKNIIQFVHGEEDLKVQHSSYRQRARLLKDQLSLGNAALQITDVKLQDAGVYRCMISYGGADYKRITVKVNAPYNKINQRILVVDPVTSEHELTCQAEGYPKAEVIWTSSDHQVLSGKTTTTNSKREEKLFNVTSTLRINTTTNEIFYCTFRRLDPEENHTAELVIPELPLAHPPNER

- binding result (PD-L1-Fc receptor [1]): no binding (tested: 1 and 0.5 µg/ml)
- binding result [2]: no binding (tested: 1 and 0.5 µg/ml)
- EC50; NFAT-luciferase luminescence (RLU x 10^-3) in co-culture of Jurkat NFAT-FLuc PD-1 cells and Raji PDL1 cells with aCD3/aTAA1 at 1 ng/ml; relief of PD-1/PDL1 inhibition [3]: 0.027 µg/mL
- Kd (PD-1-Fc receptor): 186 pM
B1: prolgolimab (antibody, V domains shown)
VH: QVQLVQSGGGLVQPGGSLRLSCAASGFTFSSYWMYWVRQVPGKGLEWVSAIDTGGGRTYYADSVKGRFAISRVNAKNTMYLQMNSLRAEDTAVYYCARDEGGGTGWGVLKDWPYGLDAWGQGTLVTVSS
VL: QPVLTQPLSVSVALGQTARITCGGNNIGSKNVHWYQQKPGQAPVLVIYRDSNRPSGIPERFSGSNSGNTATLTISRAQAGDEADYYCQVWDSSTAVFGTGTKLTVLQ
notes: also called Anti-PD-1 prologolimab; BCD100

- Kd (PD-L1-Fc receptor [4]): < 1 pM
B2: BCD-135 (antibody)
chain 1: not shown
chain 2: QTVVTQEPSLSVSPGGTVTLTCGLSSGTVTAINYPGWYQQTPGQAPRTLIYNTNTRHSGVPDRFSGSISGNKAALTITGAQAEDEADYYCALYMGNGGHMFGGGTKLTVLGQPKAAPSVTLFPPSSEELQANKATLVCLISDFYPGAVTVAWKADSSPVKAGVETTTPSKQSNNKYAASSYLSLTPEQWKSHRSYSCQVTHEGSTVEKTVAPTECS

From patent US20230011234A1 (JOINT STOCK COMPANY BIOCAD, published 2023)
